Experimental findings from article PMC4259358, “Functional Characterization of Nuclear Localization and Export Signals in Hepatitis C Virus Proteins and Their Role in the Membranous Web” (PLoS ONE, 2014) are described below.

Assay [1] has as its target NS3 NLS 2 synthetic peptide (fused to penetratin) (hepatitis C virus | not stated). Put plainly: ELISA; plates coated with synthetic peptide (10 µg/ml, carbonate buffer pH 9.6); increasing concentrations of recombinant NTF, 2 h, room temperature; anti-HIS detection; apparent Kd. The settings on record: remark: other sources report otherwise. (In general: In an ELISA, binding on a coated surface is turned into a signal by an enzyme label.)

Assay [2] has as its target NS5A NLS synthetic peptide (fused to penetratin) (hepatitis C virus | not stated). The assay is described as above. Conditions: remark: other sources report otherwise.
In assay [3] the target is NS3 NLS 1 synthetic peptide (fused to penetratin) (hepatitis C virus | not stated). Described as above. The settings on record: remark: other sources report otherwise.
The target of assay [4] is Core NLS 4 synthetic peptide (fused to penetratin) (hepatitis C virus | not stated). The assay is described as above. The settings on record: remark: other sources report otherwise.
The target in assay [5] is T1, IPO5 (Homo sapiens), O00410.
T1 chain: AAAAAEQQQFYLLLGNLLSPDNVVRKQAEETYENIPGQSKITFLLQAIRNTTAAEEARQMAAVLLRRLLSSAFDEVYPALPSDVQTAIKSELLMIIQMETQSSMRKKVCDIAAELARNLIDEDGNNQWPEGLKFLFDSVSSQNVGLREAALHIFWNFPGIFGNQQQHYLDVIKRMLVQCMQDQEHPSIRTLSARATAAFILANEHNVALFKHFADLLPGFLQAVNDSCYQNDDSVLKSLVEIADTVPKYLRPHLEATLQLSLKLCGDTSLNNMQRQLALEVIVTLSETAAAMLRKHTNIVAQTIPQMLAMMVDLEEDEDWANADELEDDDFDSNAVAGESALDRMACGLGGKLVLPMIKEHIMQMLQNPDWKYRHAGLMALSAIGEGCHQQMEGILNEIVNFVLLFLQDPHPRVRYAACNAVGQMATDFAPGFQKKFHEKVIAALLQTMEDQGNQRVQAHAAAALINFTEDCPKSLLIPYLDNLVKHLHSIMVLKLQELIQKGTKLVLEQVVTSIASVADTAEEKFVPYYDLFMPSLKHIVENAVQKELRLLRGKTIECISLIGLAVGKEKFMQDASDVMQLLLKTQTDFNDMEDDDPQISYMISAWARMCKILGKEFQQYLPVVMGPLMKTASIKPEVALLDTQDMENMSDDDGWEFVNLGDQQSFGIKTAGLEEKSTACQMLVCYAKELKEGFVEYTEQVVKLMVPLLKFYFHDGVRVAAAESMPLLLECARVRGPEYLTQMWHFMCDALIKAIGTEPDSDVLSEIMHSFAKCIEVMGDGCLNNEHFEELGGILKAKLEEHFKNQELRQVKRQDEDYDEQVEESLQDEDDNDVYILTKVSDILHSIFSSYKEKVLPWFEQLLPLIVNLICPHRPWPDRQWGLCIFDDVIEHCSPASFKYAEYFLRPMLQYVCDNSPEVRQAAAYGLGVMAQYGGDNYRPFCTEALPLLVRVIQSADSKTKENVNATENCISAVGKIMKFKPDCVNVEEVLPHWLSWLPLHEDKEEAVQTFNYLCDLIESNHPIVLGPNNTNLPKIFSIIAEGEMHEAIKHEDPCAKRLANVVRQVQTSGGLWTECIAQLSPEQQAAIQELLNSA
The settings on record: modification not given.

B1: recombinant IPO5 (importin β3/kap β3), O00410-1 1-1097 (natural protein)
chain: MAAAAAEQQQFYLLLGNLLSPDNVVRKQAEETYENIPGQSKITFLLQAIRNTTAAEEARQMAAVLLRRLLSSAFDEVYPALPSDVQTAIKSELLMIIQMETQSSMRKKVCDIAAELARNLIDEDGNNQWPEGLKFLFDSVSSQNVGLREAALHIFWNFPGIFGNQQQHYLDVIKRMLVQCMQDQEHPSIRTLSARATAAFILANEHNVALFKHFADLLPGFLQAVNDSCYQNDDSVLKSLVEIADTVPKYLRPHLEATLQLSLKLCGDTSLNNMQRQLALEVIVTLSETAAAMLRKHTNIVAQTIPQMLAMMVDLEEDEDWANADELEDDDFDSNAVAGESALDRMACGLGGKLVLPMIKEHIMQMLQNPDWKYRHAGLMALSAIGEGCHQQMEGILNEIVNFVLLFLQDPHPRVRYAACNAVGQMATDFAPGFQKKFHEKVIAALLQTMEDQGNQRVQAHAAAALINFTEDCPKSLLIPYLDNLVKHLHSIMVLKLQELIQKGTKLVLEQVVTSIASVADTAEEKFVPYYDLFMPSLKHIVENAVQKELRLLRGKTIECISLIGLAVGKEKFMQDASDVMQLLLKTQTDFNDMEDDDPQISYMISAWARMCKILGKEFQQYLPVVMGPLMKTASIKPEVALLDTQDMENMSDDDGWEFVNLGDQQSFGIKTAGLEEKSTACQMLVCYAKELKEGFVEYTEQVVKLMVPLLKFYFHDGVRVAAAESMPLLLECARVRGPEYLTQMWHFMCDALIKAIGTEPDSDVLSEIMHSFAKCIEVMGDGCLNNEHFEELGGILKAKLEEHFKNQELRQVKRQDEDYDEQVEESLQDEDDNDVYILTKVSDILHSIFSSYKEKVLPWFEQLLPLIVNLICPHRPWPDRQWGLCIFDDVIEHCSPASFKYAEYFLRPMLQYVCDNSPEVRQAAAYGLGVMAQYGGDNYRPFCTEALPLLVRVIQSADSKTKENVNATENCISAVGKIMKFKPDCVNVEEVLPHWLSWLPLHEDKEEAVQTFNYLCDLIESNHPIVLGPNNTNLPKIFSIIAEGEMHEAIKHEDPCAKRLANVVRQVQTSGGLWTECIAQLSPEQQAAIQELLNSA
B1: the Kd in assay [1] amounted to 0.0358 µM; in assay [2], 0.0323 µM; in assay [3], 0.0338 µM; in assay [4] it was 0.105 µM.
Take TRQARRNRRRRWRERQR [HIV-1 Rev NLS peptide NLS peptide, P04325]: the Kd in assay [5] was 0.044 µM.
